Values of other authors in paper PMC8239185.

What was measured:
[1] = target: Glu286 (UniProt position 286, FFGHPEVYIIV); test: kinetics; conditions: enzyme during turnover
[2] = target: Glu212 (UniProt position 213, RTPDHEDTFFR); conditions: ground state of the reaction centre (quinones oxidised)

| Substance | pKa [1] | pKa [2] |
| --- | --- | --- |
| Cytochrome c oxidase (aa3, A-type), subunit I (Rhodobacter sphaeroides (Cereibacter sphaeroides)) | ≈10 | – |
| Photosynthetic reaction centre (bRC), L subunit (Rhodobacter sphaeroides (Cereibacter sphaeroides)) | – | ≈10 |
